Experimental findings from US8209131B2, “Therapeutic heparins and their binding to interleukins 4 and 5 and PECAM-1” (Curtin University of Technology, priority 2004, dated 2012) are described below.

The nature of test [1]: BIAcore binding of proteins to heparin immobilised on a biosensor chip. The following applies: IL-4 WT and mutants binding to heparin; for ka: in M-1s-1 (unit assumed); for kd: in s-1 (unit assumed); for Kd: read-out: KD. An excerpt:
This technology uses the optical phenomenon of surface plasmon resonance to monitor physical interactions between molecules. Passing the protein solution over a sensor surface to which the ligand is coupled monitors the real-time binding of proteins to an immobilized ligand. Detection is achieved by measuring refractive index changes very close to the sensor surface. When the refractive index is altered, the angle at which plasmon resonance occurs changes and this change directly correlates with the amount of protein interacting with the surface. A BIAcore 2000 is conveniently used. It is very sensitive and its microfluidics ensures that only small amounts of material are required.
The HLGAGs are immobilized on the biosensor chip. Intact HLGAGs are biotinylated via amino groups, or reducing termini modified with ammonia by reductive amination, using sulfo-NHS-biotin. Biotinylated HLGAGs are immobilized on streptavidin-coupled sensor chips. Solutions containing proteins of interest are injected over the sensor chip surface, and the binding is measured in real time (Fernig, In: Proteoglycan protocols, Ed. R.V. Iozzo, Humana Press, Totowa, N.J., USA, 2001). […] In all cases binding is specific, as there is little or no interaction with sensor chips lacking heparin with any of the targeted proteins, and binding is inhibited by exogenous heparin. Initial analyzes indicate that the binding of rhIL-5 to heparin has affinity constants of the order from 50-5×10^−9. Because unsubstituted amines are variably present in heparan sulfates from different tissues, an alternative method of biotin labeling is recommended for the heparan sulfate chip. In this case, heparan sulfate is labeled via oxidized cis-diol residues using biotinyl-LC-hydrazine. […]
Binding experiments with these proteins has indicated to which PECAM-1 domains heparin binds. Two binding assays were used: the assay where PECAM-1 is reacted with a BIAcore biosensor chip to which heparin has been immobilised and the second assay is the binding of PECAM-1 to heparan sulfate on the cell surface.
Site directed mutagenesis was performed on IL-4. Basic residues within the proposed heparin binding site were changed to alanine and the proteins expressed using the baculovirus expression system. The one exception was R88 which was changed to valine. Insect cell expressed proteins were purified on an anti-IL-4 affinity column and checked for purity by SDS-PAGE and silver staining. Mutant IL-4 proteins were examined for their ability to bind heparin immobilised on a biosensor chip and binding assessed using a BIAcore 2000.
Background: Surface plasmon resonance follows binding to a sensor surface in real time, without labels.

The subject of test [2] is TF1.8 cells. Kind of test: TF1.8 bioassay of IL-4 mutants (support of proliferation). Format: cell-based, human. The following applies: IL-4 wt and mutants, TF1.8 cells. The method, then: TF-1.8 cells have been transfected with the firefly luciferase gene contained in the expression vector, pPGK-puromycin-luciferase (Coombe et al., 1998, Supra). The positive transfectants are cloned to produce a line with good luciferase expression. The proliferation assays are carried out in 96-well microplates suitable for such assays Falcon). The wells are flat bottomed, with white sides and a clear bottom. Cells are washed to remove any cytokine in the growth medium and then resuspended in RPMI/5% w/v FCS. The cells are counted with a Coulter Multisizer (Coulter Electronics, England) and routinely 2.5×10^4 cells are added to microplate wells that contain either no IL-4 (negative control) or various dilutions of IL-4. When the effect of HLGAGs, chondroitin sulfate C, or the heparin fractions of a particular length, or heparin fragments of a particular length and structure is to be measured, the wells also contain various concentrations of these molecules.
The cells proliferate for 48 hours at 37° C. in a humidified atmosphere, after which the luciferase activity is measured by the addition of 50 μl of luciferase substrate buffer (50 mm Tris-HCl, pH 7.8, 15 mM MgSO4, 33.3 mM DTT, 0.1 mM EDTA, 0.5 mM Na-luciferin, 0.5 mM ATP, 0.25 mM lithium Co A and 0.5% v/v Triton X-100). Immediately after the addition of the luciferase buffer the plate is assayed for luciferase activity. Light emissions are detected on a Victor 1420 Multilabel counter (Wallac, Turku, Finland).
IL-4 mutants were compared with WT for their ability to support the proliferation of TF1.8 cells. Titration curves were performed for each of the mutants and the concentration needed to support 50% of cell growth was determined.

One may read the Kd as the concentration at which binding is half-saturated.

B1: R75A: IL-4 mutant, baculovirus expressed (protein)
chain: HKCDITLQEIIKTLNSLTEQKTLCTELTVTDIFAASKNTTEKETFCRAATVLRQFYSHHEKDTRCLGATAQQFHAHKQLIRFLKRLDRNLWGLAGLNSCPVKEANQSTLENFLERLKTIMREKYSKCSS
For B1, in test [1], the ka is 3.32E+04, the kd turned out to be 3.63E−03 and the Kd was 109 nM. For the same molecule, in test [2], the “Conc needed for 50% growth, average” value turned out to be 0.63 ng/mL.

B2: K21A: IL-4 mutant, baculovirus expressed (protein)
chain: HKCDITLQEIIKTLNSLTEQATLCTELTVTDIFAASKNTTEKETFCRAATVLRQFYSHHEKDTRCLGATAQQFHRHKQLIRFLKRLDRNLWGLAGLNSCPVKEANQSTLENFLERLKTIMREKYSKCSS
Consider B2, for which, in test [1], the ka came to 4.86E+04, the kd amounted to 2.53E−03 and the Kd was 52.1 nM. Also, the “Conc needed for 50% growth, average” value in test [2] was 1.36 ng/mL.

B3: K77A/K84A: IL-4 double mutant (protein)
chain: HKCDITLQEIIKTLNSLTEQKTLCTELTVTDIFAASKNTTEKETFCRAATVLRQFYSHHEKDTRCLGATAQQFHRHAQLIRFLARLDRNLWGLAGLNSCPVKEANQSTLENFLERLKTIMREKYSKCSS
As to B3, in test [1], the ka was 1.26E+04, the kd is on record as 2.23E−03 and the Kd was 176 nM. The “Conc needed for 50% growth, average” value in test [2] came out at 1.69 ng/mL.

B4: K12A: IL-4 mutant, baculovirus expressed (protein)
chain: HKCDITLQEIIATLNSLTEQKTLCTELTVTDIFAASKNTTEKETFCRAATVLRQFYSHHEKDTRCLGATAQQFHRHKQLIRFLKRLDRNLWGLAGLNSCPVKEANQSTLENFLERLKTIMREKYSKCSS
In the case of B4, in test [1], the ka came out at 5.03E+04, the kd stood at 3.95E−03 and the dissociation constant (Kd) was 78.5 nM. Besides, the “Conc needed for 50% growth, average” value in test [2] was determined as 0.6 ng/mL.

B5: K77A: IL-4 mutant, baculovirus expressed (protein)
chain: HKCDITLQEIIKTLNSLTEQKTLCTELTVTDIFAASKNTTEKETFCRAATVLRQFYSHHEKDTRCLGATAQQFHRHAQLIRFLKRLDRNLWGLAGLNSCPVKEANQSTLENFLERLKTIMREKYSKCSS
Take B5: in test [1], the ka is listed as 6.42E+03, the kd came out at 2.24E−03 and the Kd is 349 nM. Besides, the “Conc needed for 50% growth, average” value in test [2] stood at 1.55 ng/mL.

B6: K77A/R53A: IL-4 double mutant (protein)
chain: HKCDITLQEIIKTLNSLTEQKTLCTELTVTDIFAASKNTTEKETFCRAATVLAQFYSHHEKDTRCLGATAQQFHRHAQLIRFLKRLDRNLWGLAGLNSCPVKEANQSTLENFLERLKTIMREKYSKCSS
For the molecule B6, in test [1], the ka stood at 1.79E+04, the kd is on record as 3.08E−03 and the Kd worked out at 172 nM. Further, the “Conc needed for 50% growth, average” value in test [2] came to 11.3 ng/mL.

B7: K77A/R81A: IL-4 double mutant (protein)
chain: HKCDITLQEIIKTLNSLTEQKTLCTELTVTDIFAASKNTTEKETFCRAATVLRQFYSHHEKDTRCLGATAQQFHRHAQLIAFLKRLDRNLWGLAGLNSCPVKEANQSTLENFLERLKTIMREKYSKCSS
As for B7, in test [1], the ka is on record as 9.82E+03, the kd is on record as 1.55E−03 and the Kd was determined as 158 nM. Besides, the “Conc needed for 50% growth, average” value in test [2] is 1.65 ng/mL.

B8: R121A: IL-4 mutant, baculovirus expressed (protein)
chain: HKCDITLQEIIKTLNSLTEQKTLCTELTVTDIFAASKNTTEKETFCRAATVLRQFYSHHEKDTRCLGATAQQFHRHKQLIRFLKRLDRNLWGLAGLNSCPVKEANQSTLENFLERLKTIMAEKYSKCSS
In the case of B8, in test [1], the ka amounted to 5.13E+04, the kd came to 2.13E−03 and the Kd came to 41.5 nM. Further, the “Conc needed for 50% growth, average” value in test [2] was 1.01 ng/mL.
